{
  "source": "paper PMC2213684",
  "about": "“Altering coenzyme specificity of Pichia stipitis xylose reductase by the semi-rational approach CASTing” (Microbial Cell Factories, 2007)",
  "proteins": {"B1": {"name": "PsXR (wild-type NT-XR), Pichia stipitis xylose reductase (Scheffersomyces stipitis CBS 6054) (protein)", "chain": "MPSIKLNSGYDMPAVGFGCWKVDVDTCSEQIYRAIKTGYRLFDGAEDYANEKLVGAGVKKAIDEGIVKREDLFLTSKLWNNYHHPDNVEKALNRTLSDLQVDYVDLFLIHFPVTFKFVPLEEKYPPGFYCGKGDNFDYEDVPILETWKALEKLVKAGKIRSIGVSNFPGALLLDLLRGATIKPSVLQVEHHPYLQQPRLIEFAQSRGIAVTAYSSFGPQSFVELNQGRALNTSPLFENETIKAIAAKHGKSPAQVLLRWSSQRGIAIIPKSNTVPRLLENKDVNSFDLDEQDFADIAKLDINLRFNDPWDWDKIPIFV"}, "B2": {"name": "PsXR (wild-type NT-XR), Pichia stipitis xylose reductase (Scheffersomyces stipitis CBS 6054; K270S/N272P) (protein)", "chain": "B1 chain with K270S, N272P"}, "B3": {"name": "PsXR (wild-type NT-XR), Pichia stipitis xylose reductase (Scheffersomyces stipitis CBS 6054; K270S/N272P/R276F/S271G) (protein)", "chain": "B1 chain with K270S, S271G, N272P, R276F"}, "B4": {"name": "PsXR (wild-type NT-XR), Pichia stipitis xylose reductase (Scheffersomyces stipitis CBS 6054; K270R/N272D) (protein)", "chain": "B1 chain with K270R, N272D"}},
  "key": {"purified protein [1]": {"substrate": "NC(=O)C1=CN([C@@H]2O[C@H](COP(=O)(O)OP(=O)(O)OC[C@H]3O[C@@H](n4cnc5c(N)ncnc54)[C@H](OP(=O)(O)O)[C@@H]3O)[C@@H](O)[C@H]2O)C=CC1", "assay": "purified protein", "format": "biochemical, Scheffersomyces stipitis", "settings": "50 mM potassium phosphate pH 6.0"}, "purified protein [2]": {"substrate": "NC(=O)C1=CN([C@@H]2O[C@H](COP(=O)(O)OP(=O)(O)OC[C@H]3O[C@@H](n4cnc5c(N)ncnc54)[C@H](O)[C@@H]3O)[C@@H](O)[C@H]2O)C=CC1", "assay": "purified protein", "format": "biochemical, Scheffersomyces stipitis", "settings": "50 mM potassium phosphate pH 6.0"}, "[3]": {"settings": "mutant NT-K270R/N272D, 0.5 M xylose"}},
  "note": "Where a chain is given by its changes, count along the chain named. Numbers in names are those of the source.",
  "data": [
    {"protein": "B1", "values": [
      {"measurement": "Km", "setting": "purified protein [1]; 0.5 M xylose", "value": "6.2 ± 1.4", "unit": "µM"},
      {"measurement": "kcat", "setting": "purified protein [1]; 0.5 M xylose", "value": "27.5 ± 3.28", "unit": "s⁻¹"},
      {"measurement": "kcat/Km", "setting": "purified protein [1]; 0.5 M xylose", "value": "4.65e+06 ± 938000", "unit": "M⁻¹ s⁻¹"},
      {"measurement": "Km", "setting": "purified protein [2]; 0.5 M xylose", "value": "10.6 ± 0.6", "unit": "µM"},
      {"measurement": "kcat", "setting": "purified protein [2]; 0.5 M xylose", "value": "15.4 ± 0.583", "unit": "s⁻¹"},
      {"measurement": "kcat/Km", "setting": "purified protein [2]; 0.5 M xylose", "value": "1.46e+06 ± 112000", "unit": "M⁻¹ s⁻¹"}
    ]},
    {"protein": "B2", "values": [
      {"measurement": "Km", "setting": "purified protein [1]; mutant 1-2F7, 0.5 M xylose", "value": "849 ± 45", "unit": "µM"},
      {"measurement": "kcat", "setting": "purified protein [1]; mutant 1-2F7, 0.5 M xylose", "value": "35.2 ± 3.93", "unit": "s⁻¹"},
      {"measurement": "kcat/Km", "setting": "purified protein [1]; mutant 1-2F7, 0.5 M xylose", "value": "41700 ± 5000", "unit": "M⁻¹ s⁻¹"},
      {"measurement": "Km", "setting": "purified protein [2]; mutant 1-2F7, 0.5 M xylose", "value": "512 ± 22", "unit": "µM"},
      {"measurement": "kcat", "setting": "purified protein [2]; mutant 1-2F7, 0.5 M xylose", "value": "18.5 ± 1.3", "unit": "s⁻¹"},
      {"measurement": "kcat/Km", "setting": "purified protein [2]; mutant 1-2F7, 0.5 M xylose", "value": "36300 ± 2520", "unit": "M⁻¹ s⁻¹"}
    ]},
    {"protein": "B3", "values": [
      {"measurement": "Km", "setting": "purified protein [1]; mutant 2-2C12, 0.5 M xylose", "value": "427 ± 17", "unit": "µM"},
      {"measurement": "kcat", "setting": "purified protein [1]; mutant 2-2C12, 0.5 M xylose", "value": "2.63 ± 0.15", "unit": "s⁻¹"},
      {"measurement": "kcat/Km", "setting": "purified protein [1]; mutant 2-2C12, 0.5 M xylose", "value": "6170 ± 317", "unit": "M⁻¹ s⁻¹"},
      {"measurement": "Km", "setting": "purified protein [2]; mutant 2-2C12, 0.5 M xylose", "value": "147 ± 12", "unit": "µM"},
      {"measurement": "kcat", "setting": "purified protein [2]; mutant 2-2C12, 0.5 M xylose", "value": "12 ± 0.95", "unit": "s⁻¹"},
      {"measurement": "kcat/Km", "setting": "purified protein [2]; mutant 2-2C12, 0.5 M xylose", "value": "81700 ± 5250", "unit": "M⁻¹ s⁻¹"}
    ]},
    {"protein": "B4", "values": [
      {"measurement": "Km", "setting": "purified protein [1]; [3]", "value": "142 ± 31", "unit": "µM"},
      {"measurement": "kcat", "setting": "purified protein [1]; [3]", "value": "15.9 ± 3.38", "unit": "s⁻¹"},
      {"measurement": "kcat/Km", "setting": "purified protein [1]; [3]", "value": "107000 ± 24800", "unit": "M⁻¹ s⁻¹"},
      {"measurement": "Km", "setting": "purified protein [2]; [3]", "value": "58 ± 9", "unit": "µM"},
      {"measurement": "kcat", "setting": "purified protein [2]; [3]", "value": "17.9 ± 2.07", "unit": "s⁻¹"},
      {"measurement": "kcat/Km", "setting": "purified protein [2]; [3]", "value": "313000 ± 40000", "unit": "M⁻¹ s⁻¹"}
    ]}
  ]
}
